Source: patent US20250179187A1, “ANTI PD-L2 ANTIBODY” (REJUVERON SENESCENCE THERAPEUTICS AG, priority 2022, published 2025)

Experiments:
recombinant mPD-L2 = biological target: T1, recombinant mPD-L2 (Mus musculus, UniProt Q9WUL5); test: ELISA for mPDL2; type: binding
T1 construct: purchased Sino Biological 50804-M08H-B
T1 sequence (Q9WUL5 20-247): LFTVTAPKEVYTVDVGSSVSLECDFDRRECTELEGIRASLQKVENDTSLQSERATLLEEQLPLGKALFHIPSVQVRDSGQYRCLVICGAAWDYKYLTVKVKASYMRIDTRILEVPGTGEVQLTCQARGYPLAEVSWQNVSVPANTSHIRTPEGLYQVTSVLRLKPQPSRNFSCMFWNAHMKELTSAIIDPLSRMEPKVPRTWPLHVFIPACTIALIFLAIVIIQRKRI
Method: ELISA plates were coated with recombinant mPDL2 (Sino Biological, cat 50804-M08H-B, lot LC10SE0706) at a concentration of 2 micrograms/milliliter at 4° C. for 15 h. Coating was then washed two times with PBS and blocked with 0.5% bovine serum albumin (BSA)/PBS at 37° C. for one hour. Blocking was removed and appropriate antibody concentrations diluted in 0.5% BSA/PBS for 1 hour at 37° C. Plates were then washed five time in PBS and a goat anti-mouse-HRP (Jackon Immuno Research cat #115-035-071) diluted in 0.5% BSA/PBS was added and incubated for 30 minutes at 37° C. Plates were washed again five times with PBS and TMB substrate (Medicago cat #10-9405) was added for 30 minutes at 37° C. in the dark. Reaction was stopped with 1N HCl and read and optical densities read on a standard spectrophotometer plate reader at […].

PyMT spontaneous tumors = test: Spontaneous mouse PyMT breast tumor model with tumor immunostaining; type: in vivo
Method: Hemizygous transgenic PyMT mice were allowed to develop tumors to an average size of around 200 cubic millimeters, usually around 9 weeks, at which time treatment was initiated, with N=3-5 per treatment group. Doxorubicin (Aurovitas) was administered intraperitoneally once per week at 4 mg/kg and antibodies were administered every three days at a dose of 10 mg/kg during four weeks or 3 mg/kg where noted. Vehicle-treated animals received only vehicle solvent for doxorubicin as a no-treatment control. Tumors were measured with a standard caliper once per week. At the end of the study, tumors were resected and further analyzed by immunohistochemistry.
For the depleting study, the same treatment regimen described above was carried out but in combination with CD4 or CD8-depleting antibodies (BioXCell), administered on day −1, day 0 and weekly thereafter at a dose of 200 micrograms per animal.
For double SA-beta-galactosidase/PD-L2 staining, following resection, tumors were fixed in 2% paraformaldehyde and 0.2% glutaldehyde in PBS for 2 hours at room temperature. Samples were washed in PBS for 15 minutes then stained by standard procedures for SA-beta-galactosidase activity overnight. Following this, tumors were washed in PBS for 15 minutes, dehydrated in 70% ethanol and embedded in paraffin, sectioned, and stained for PDL2 with an anti-PDL2 antibody (Cell Signaling, D6L5A cat #49189) by standard immunohistochemistry techniques. To quantify the number of cells double positive for SA-beta-galactosidase and PDL2, 3 random fields from 2 mammary glands from each animal in each treatment group was analyzed with Image J software. Staining for CD3, CD4 and CD8 was also carried out by standard immunohistochemistry techniques on paraffin-embedded material and quantified according to pixel density using Image J software.

B1: VH0/VK0-mIgG1: parental murine anti-PD-L2 antibody on mIgG1 backbone; SEQ ID NO: 21/SEQ ID NO: 22 (antibody, V domains shown)
VH: QVQLQQSGAELVRPGTSVKVSCKASGYAFSNYFIEWVKQRPGQGLEWIGLNIPGSGGSNYAEKFKGKATLTADKSSSTAYMQLSSLTSEDSAVYFCARRRLPPDWYFDVWGTGTTVTVSS
VL: DVVMTQTPLSLPVSLGDQASISCRSSQSLVHSDGNTYLHWYLQKPGQSPKLLIYKVSNRFSGVPDRFSGSGSGTDFTLKISRVEAEDLGVYFCSQSTHVPWTFGGGTKLEIK
In the case of B1, the “cross-reactivity to recombinant mPD-L2” value (recombinant mPD-L2) is reported as “shows cross-reactivity”, the final tumor volume (PyMT spontaneous tumors; 3 mg/kg antibody with doxorubicin over four weeks, compared to doxorubicin alone or TY-25 and doxorubicin) is reported as “greater reduction in final tumor volume” and the tumor growth (PyMT spontaneous tumors; combination with doxorubicin vs doxorubicin and mIgG1 control) is reported as “inhibited tumor growth more”. For the same molecule, the “relative numbers of CD3+, CD8+ and CD4+ cells in PyMT spontaneous tumors” value (PyMT spontaneous tumors; combination with doxorubicin, compared to vehicle or doxorubicin-only treated mice (p<0.05)) was “increased relative numbers”, the “inhibition of tumor progression under depleting antibodies against CD4+ cells” value (PyMT spontaneous tumors; doxorubicin and antibody plus CD4-depleting antibodies) was “only slightly relieved this inhibition” and the “inhibition of tumor progression under depleting antibodies against CD8+ cells” value (PyMT spontaneous tumors; doxorubicin and antibody plus CD8-depleting antibodies) was “relieve the inhibition”. For the same molecule, the “cells double-positive for PD-L2 and SA-βGal in PyMT tumors” value (PyMT spontaneous tumors; immunohistochemistry, antibody co-treated with doxorubicin vs Vehicle or Doxorubicin+mIgG1 (p<0.05)) was “significantly lower”.
